Laboratory results from PMC4831018.

What was measured:
[1] = target: TgVps26-HA (Toxoplasma gondii); assay: affinity purification with mass spectrometry; absolute quantification of TgVps35, TgVps26 and TgVps29 in the immunoprecipitates by microLC-SRM with stable isotope-labelled standard peptides, three proteotypic peptides per protein
[2] = target: TgVps29-cMyc (Toxoplasma gondii); assay: as above

TgVps35-HA (natural protein)
stoichiometry N (TgVps35 per TgVps26) [1]: 1
stoichiometry N (TgVps35 per TgVps29) [2]: 3
